Data on 1 molecule can be found in US20020016443A1, “Antiproliferative factor” (priority 1996, published 2002).

For this assay, the system named is APF activity on primary normal bladder epithelial cells. The experiment in a line: Blocking of APF antiproliferative activity by recombinant growth factors (^3H-thymidine incorporation). In kind it is cell-based, human. The method, then:
^3H-Thymidine Incorporation. Primary normal adult human bladder epithelial cells (HBE) were grown from biopsies obtained at autopsy from patients who had no history of bladder disorder. HBE cells were plated at a density of 1×10^4 cells/well onto 96 well tissue culture plates and incubated at 37° C. overnight (resulting in approximately 60% confluence the following day). The medium was then changed to MEM containing only 1% glutamine and 1% antibiotic/ antimycotic solution, and the cells were incubated at 37° C. overnight. […] Cells were then trypsinized, and insoluble cell contents harvested and methanol-fixed onto glass fiber filter paper, as previously described^62; the amount of radioactivity incorporated was determined as counts per minute using a Beckman LS 3801 scintillation counter. […]
To determine whether the antiproliferative effect of the APF on bladder epithelial cells might be due to a decrease in HB-EGF production, primary normal bladder epithelial cells were simultaneously incubated with varying levels of recombinant HB-EGF, EGF, or IGF1 and low molecular weight urine fractions from IC patients. […] This effect was evident using a concentration of HB-EGF (10 ng/ml) in the range previously determined for normal controls (2-22 ng/ml, mean 6.33 ng/ml) 12 as well as higher concentrations (30 and 100 ng/ml). […]
(In general: Dividing cells build labelled thymidine or BrdU into new DNA.)

B1: heparin-binding epidermal growth factor-like growth factor (protein, UniProt Q99075 63-148, looked up)
Heparin-binding EGF-like …: DLQEADLDLLRVTLSSKPQALATPNKEEHGKRKKKGKGLGKKRDPCLRKYKDFCIHGECKYVKELRAPSCICHPGYHGERCHGLSL
Consider B1, for which the “inhibition of antiproliferative activity of HPLC-purified APF” value (10 ng purified APF, 30 ng/ml of HB-EGF, normal and IC patient cells) is “inhibited for 2 of 3 APF specimens”. Also, the “inhibition of IC urine antiproliferative activity by recombinant growth factor” value (co-incubation with low molecular weight IC urine fractions, HB-EGF 10, 30 and 100 ng/ml, EGF, IGF1 up to about 12 and 25 fold normal levels) is given as “inhibited by HB-EGF in a dose-dependent manner”.
